Source: IntAct's records for PubMed 31515488

B1: N-chimaerin (Homo sapiens), P15882 (parent)
chain: MALTLFDTDEYRPPVWKSYLYQLQQEAPHPRRITCTCEVENRPKYYGREFHGMISREAADQLLIVAEGSYLIRESQRQPGTYTLALRFGSQTRNFRLYYDGKHFVGEKRFESIHDLVTDGLITLYIETKAAEYIAKMTINPIYEHVGYTTLNREPAYKKHMPVLKETHDERDSTGQDGVSEKRLTSLVRRATLKENEQIPKYEKIHNFKVHTFRGPHWCEYCANFMWGLIAQGVKCADCGLNVHKQCSKMVPNDCKPDLKHVKKVYSCDLTTLVKAHTTKRPMVVDMCIREIESRGLNSEGLYRVSGFSDLIEDVKMAFDRDGEKADISVNMYEDINIITGALKLYFRDLPIPLITYDAYPKFIESAKIMDPDEQLETLHEALKLLPPAHCETLRYLMAHLKRVTLHEKENLMNAENLGIVFGPTLMRSPELDAMAALNDIRYQRLVVELLIKNEDILF
partner: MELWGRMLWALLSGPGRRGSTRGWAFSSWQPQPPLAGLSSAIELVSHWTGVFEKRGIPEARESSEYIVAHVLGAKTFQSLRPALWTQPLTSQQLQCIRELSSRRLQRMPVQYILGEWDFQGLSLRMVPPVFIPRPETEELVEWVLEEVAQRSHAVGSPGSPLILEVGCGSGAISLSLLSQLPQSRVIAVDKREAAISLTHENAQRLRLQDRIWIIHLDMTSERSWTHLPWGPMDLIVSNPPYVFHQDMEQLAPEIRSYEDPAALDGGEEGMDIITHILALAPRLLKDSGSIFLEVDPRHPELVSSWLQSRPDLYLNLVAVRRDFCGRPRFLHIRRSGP
B2: Fanconi anemia group G protein (Homo sapiens), O15287 (parent)
chain: MSRQTTSVGSSCLDLWREKNDRLVRQAKVAQNSGLTLRRQQLAQDALEGLRGLLHSLQGLPAAVPVLPLELTVTCNFIILRASLAQGFTEDQAQDIQRSLERVLETQEQQGPRLEQGLRELWDSVLRASCLLPELLSALHRLVGLQAALWLSADRLGDLALLLETLNGSQSGASKDLLLLLKTWSPPAEELDAPLTLQDAQGLKDVLLTAFAYRQGLQELITGNPDKALSSLHEAASGLCPRPVLVQVYTALGSCHRKMGNPQRALLYLVAALKEGSAWGPPLLEASRLYQQLGDTTAELESLELLVEALNVPCSSKAPQFLIEVELLLPPPDLASPLHCGTQSQTKHILASRCLQTGRAGDAAEHYLDLLALLLDSSEPRFSPPPSPPGPCMPEVFLEAAVALIQAGRAQDALTLCEELLSRTSSLLPKMSRLWEDARKGTKELPYCPLWVSATHLLQGQAWVQLGAQKVAISEFSRCLELLFRATPEEKEQGAAFNCEQGCKSDAALQQLRAAALISRGLEWVASGQDTKALQDFLLSVQMCPGNRDTYFHLLQTLKRLDRRDEATALWWRLEAQTKGSHEDALWSLPLYLESYLSWIRPSDRDAFLEEFRTSLPKSCDL
B3: Retinoic acid receptor alpha (Homo sapiens), P10276 (parent)
chain: MASNSSSCPTPGGGHLNGYPVPPYAFFFPPMLGGLSPPGALTTLQHQLPVSGYSTPSPATIETQSSSSEEIVPSPPSPPPLPRIYKPCFVCQDKSSGYHYGVSACEGCKGFFRRSIQKNMVYTCHRDKNCIINKVTRNRCQYCRLQKCFEVGMSKESVRNDRNKKKKEVPKPECSESYTLTPEVGELIEKVRKAHQETFPALCQLGKYTTNNSSEQRVSLDIDLWDKFSELSTKCIIKTVEFAKQLPGFTTLTIADQITLLKAACLDILILRICTRYTPEQDTMTFSDGLTLNRTQMHNAGFGPLTDLVFAFANQLLPLEMDDAETGLLSAICLICGDRQDLEQPDRVDMLQEPLLEALKVYVRKRRPSRPHMFPKMLMKITDLRSISAKGAERVITLKMEIPGSMPPLIQEMLENSEGLDTLSGQPGGGGRDGGGLAPPPGSCSPSLSPSSNRSSPATHSP
partner: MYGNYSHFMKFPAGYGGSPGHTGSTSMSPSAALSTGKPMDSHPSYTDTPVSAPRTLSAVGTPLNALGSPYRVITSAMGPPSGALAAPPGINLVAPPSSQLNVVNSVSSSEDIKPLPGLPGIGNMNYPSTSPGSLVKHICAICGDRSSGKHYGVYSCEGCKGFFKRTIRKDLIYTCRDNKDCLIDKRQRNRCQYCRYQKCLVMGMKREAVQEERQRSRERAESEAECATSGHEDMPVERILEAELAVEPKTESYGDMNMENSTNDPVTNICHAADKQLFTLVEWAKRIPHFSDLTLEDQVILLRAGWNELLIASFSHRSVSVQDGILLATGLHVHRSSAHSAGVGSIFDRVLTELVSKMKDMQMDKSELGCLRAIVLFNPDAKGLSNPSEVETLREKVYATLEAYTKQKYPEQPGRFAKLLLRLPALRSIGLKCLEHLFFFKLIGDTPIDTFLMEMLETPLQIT
B4: 60 kDa heat shock protein, mitochondrial (Homo sapiens), P10809 (parent)
chain: MLRLPTVFRQMRPVSRVLAPHLTRAYAKDVKFGADARALMLQGVDLLADAVAVTMGPKGRTVIIEQSWGSPKVTKDGVTVAKSIDLKDKYKNIGAKLVQDVANNTNEEAGDGTTTATVLARSIAKEGFEKISKGANPVEIRRGVMLAVDAVIAELKKQSKPVTTPEEIAQVATISANGDKEIGNIISDAMKKVGRKGVITVKDGKTLNDELEIIEGMKFDRGYISPYFINTSKGQKCEFQDAYVLLSEKKISSIQSIVPALEIANAHRKPLVIIAEDVDGEALSTLVLNRLKVGLQVVAVKAPGFGDNRKNQLKDMAIATGGAVFGEEGLTLNLEDVQPHDLGKVGEVIVTKDDAMLLKGKGDKAQIEKRIQEIIEQLDVTTSEYEKEKLNERLAKLSDGVAVLKVGGTSDVEVNEKKDRVTDALNATRAAVEEGIVLGGGCALLRCIPALDSLTPANEDQKIGIEIIKRTLKIPAMTIAKNAGVEGSLIVEKIMQSSSEVGYDAMAGDFVNMVEKGIIDPTKVVRTALLDAAGVASLLTTAEVVVTEIPKEEKDPGMGAMGGMGGGMGGGMF
partner: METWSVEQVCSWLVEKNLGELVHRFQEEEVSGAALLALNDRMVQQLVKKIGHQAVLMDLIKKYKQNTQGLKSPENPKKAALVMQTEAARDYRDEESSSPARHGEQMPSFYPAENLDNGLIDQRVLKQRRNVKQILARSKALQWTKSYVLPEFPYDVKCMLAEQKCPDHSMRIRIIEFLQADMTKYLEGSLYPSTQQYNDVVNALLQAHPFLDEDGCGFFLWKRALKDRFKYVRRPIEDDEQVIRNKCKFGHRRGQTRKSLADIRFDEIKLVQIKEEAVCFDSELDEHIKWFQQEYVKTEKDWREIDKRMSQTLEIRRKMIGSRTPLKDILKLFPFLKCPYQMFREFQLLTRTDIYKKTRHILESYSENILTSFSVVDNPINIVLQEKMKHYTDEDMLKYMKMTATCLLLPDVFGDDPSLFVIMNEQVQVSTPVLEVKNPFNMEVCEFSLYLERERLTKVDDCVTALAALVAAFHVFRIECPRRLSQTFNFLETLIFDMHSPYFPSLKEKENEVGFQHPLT

Variants of: B1
Conditions: with hemk1_human HEMK1, Q9Y5R4

Variant | effect of a mutation on the interaction
D115N | disrupting interaction strength

Variants of: B2
Conditions: with mbip1_human MBIP

Variant | effect of a mutation on the interaction
S7F | with no effect
T297I | with no effect

Variants of: B2
Conditions: with KRT15, P19012
Chain of KRT15, P19012 (P19012 whole entry): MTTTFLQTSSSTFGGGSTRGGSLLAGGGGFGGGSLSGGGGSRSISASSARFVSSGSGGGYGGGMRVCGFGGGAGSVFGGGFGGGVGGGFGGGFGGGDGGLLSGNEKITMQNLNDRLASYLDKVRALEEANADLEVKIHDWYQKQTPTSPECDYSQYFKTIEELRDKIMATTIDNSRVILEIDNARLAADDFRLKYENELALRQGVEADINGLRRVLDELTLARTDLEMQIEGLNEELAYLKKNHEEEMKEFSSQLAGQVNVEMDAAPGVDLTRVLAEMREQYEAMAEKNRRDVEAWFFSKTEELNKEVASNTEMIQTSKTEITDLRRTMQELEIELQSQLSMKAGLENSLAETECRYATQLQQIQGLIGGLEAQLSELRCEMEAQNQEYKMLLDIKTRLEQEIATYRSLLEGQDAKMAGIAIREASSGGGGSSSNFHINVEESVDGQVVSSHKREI

Variant | effect of a mutation on the interaction
S7F | with no effect
T297I | with no effect

Variants of: B2
Conditions: with cenpr_human ITGB3BP

Variant | effect of a mutation on the interaction
S7F | with no effect
T297I | with no effect

Variants of: B2
Conditions: with KRT19, P08727
Chain of KRT19, P08727 (P08727 whole entry): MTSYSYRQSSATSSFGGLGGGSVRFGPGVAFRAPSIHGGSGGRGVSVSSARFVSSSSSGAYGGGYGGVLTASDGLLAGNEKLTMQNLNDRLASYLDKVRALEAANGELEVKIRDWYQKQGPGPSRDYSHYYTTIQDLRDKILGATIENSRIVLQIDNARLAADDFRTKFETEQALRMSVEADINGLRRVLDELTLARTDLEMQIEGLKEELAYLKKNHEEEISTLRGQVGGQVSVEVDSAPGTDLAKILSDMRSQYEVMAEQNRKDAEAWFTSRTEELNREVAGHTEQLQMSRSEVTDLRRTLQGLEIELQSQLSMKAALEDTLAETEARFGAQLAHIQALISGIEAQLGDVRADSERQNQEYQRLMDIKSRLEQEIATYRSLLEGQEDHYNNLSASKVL

Variant | effect of a mutation on the interaction
S7F | with no effect
T297I | with no effect

Variants of: B3
Conditions: with rxrg_human RXRG

Variant | effect of a mutation on the interaction
P318R | with no effect

Variants of: B4
Conditions: with samd3_human SAMD3, Q8N6K7

Variant | effect of a mutation on the interaction
R9G | with no effect
